This is an account of results in patent publication US20220227882A1 (TRUSTEES OF TUFTS COLLEGE, published 2022).

In test [1] the target is T1, ADAM33 expressed in transiently transfected HEK293 cells (HEK293-ADAM33) (UniProt Q9BZ11 204-813).
T1 construct: whole, on cells; Expression in HEK293 cells is mainly intracellular; also called HEK293-A33; A33
T1 sequence (looked up): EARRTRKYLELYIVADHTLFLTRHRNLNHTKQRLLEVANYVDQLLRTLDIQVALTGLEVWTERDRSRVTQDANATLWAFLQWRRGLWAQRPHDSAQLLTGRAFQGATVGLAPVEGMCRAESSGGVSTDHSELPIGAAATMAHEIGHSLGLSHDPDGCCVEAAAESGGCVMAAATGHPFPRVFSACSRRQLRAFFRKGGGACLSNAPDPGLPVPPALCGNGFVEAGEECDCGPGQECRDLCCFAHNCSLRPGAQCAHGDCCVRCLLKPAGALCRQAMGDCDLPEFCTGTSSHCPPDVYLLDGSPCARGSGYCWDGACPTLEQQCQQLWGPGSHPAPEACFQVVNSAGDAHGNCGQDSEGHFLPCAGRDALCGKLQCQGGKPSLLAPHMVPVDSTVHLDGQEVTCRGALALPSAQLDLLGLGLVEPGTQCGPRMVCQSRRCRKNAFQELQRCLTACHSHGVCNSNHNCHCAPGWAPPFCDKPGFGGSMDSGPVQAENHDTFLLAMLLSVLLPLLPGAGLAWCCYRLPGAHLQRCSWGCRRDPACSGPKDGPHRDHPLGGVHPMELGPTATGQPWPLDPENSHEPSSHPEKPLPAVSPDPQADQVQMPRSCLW
The test is described as follows: FACS, fixed and permeabilized HEK293-ADAM33 cells. How it is done: ADP2 and ADP13 were also tested for cross-reactivity to the ADAM8 related protein ADAM33 using a variation of the above FACS protocol, which included steps for cell fixation and permeabilization. FACS was performed as an ELISA assay was precluded due to the lack of commercially available recombinant ADAM33. Cell fixation and permeabilization steps were needed as ADAM33 expression in HEK293 cells is primarily intracellular. HEK293 cells were transiently transfected over a 48-hr period with an ADAM33 construct (Clone ID HsCD00419548, Harvard Plasmid Information Database) or a control EV DNA (Plasmid #25890, Addgene) using Lipofectamine® 2000. Single cell suspensions (1×10⁶ cells/ml) were prepared in FACS buffer. Cell samples (1 ml) were centrifuged, resuspended in 50 μL cold 4% paraformaldehyde and incubated for 20 minutes at 4° C. in the dark with occasional shaking. Cells were then washed once with 1 ml FACS buffer, and then twice with 0.1% saponin FACS buffer. Samples were exposed to primary antibodies in 50 μL of 0.1% saponin FACS buffer for 30 minutes at 4° C. For ADP2, ADP13 and their respective IgG2b and IgG1 isotype matched controls, 2 μg of antibody were used. […] After three washes in 0.1% saponin FACS buffer, cells were resuspended in 500 μL FACS buffer and analyzed on a BD FACSCalibur™ machine.

Test [2] addresses T2, Recombinant human ADAM15 (Sino Biological, 10517-H08H) (human, UniProt Q13444 18-696).
T2 sequence (looked up): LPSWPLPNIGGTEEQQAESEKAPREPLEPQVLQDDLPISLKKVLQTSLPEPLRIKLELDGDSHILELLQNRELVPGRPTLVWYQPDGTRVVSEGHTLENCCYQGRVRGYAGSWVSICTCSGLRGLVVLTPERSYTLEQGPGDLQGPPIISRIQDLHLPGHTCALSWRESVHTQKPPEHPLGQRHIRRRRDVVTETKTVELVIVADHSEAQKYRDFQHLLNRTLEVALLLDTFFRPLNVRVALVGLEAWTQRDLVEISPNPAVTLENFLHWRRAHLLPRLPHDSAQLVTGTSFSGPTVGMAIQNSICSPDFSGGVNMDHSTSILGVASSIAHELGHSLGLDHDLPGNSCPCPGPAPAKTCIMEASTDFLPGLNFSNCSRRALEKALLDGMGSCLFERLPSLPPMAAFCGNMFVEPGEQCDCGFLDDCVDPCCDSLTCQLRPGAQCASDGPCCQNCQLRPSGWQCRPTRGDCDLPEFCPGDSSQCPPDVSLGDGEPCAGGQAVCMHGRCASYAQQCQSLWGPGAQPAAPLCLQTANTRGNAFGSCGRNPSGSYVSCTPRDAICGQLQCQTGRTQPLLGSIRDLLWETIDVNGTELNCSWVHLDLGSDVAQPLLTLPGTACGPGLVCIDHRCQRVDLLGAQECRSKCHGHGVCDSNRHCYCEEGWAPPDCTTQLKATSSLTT
The test is described as follows: ELISA, recombinant ADAM15. On the procedure: (§1) ELISA assays were also used to test hybridoma clones, subclones and purified ADP antibodies for specificity of ADAM8 binding, i.e., binding to rHuADAM8 (Acro Biosystems, AD8-H5223) was compared to binding to closely related recombinant human ADAM proteins: […], ADAM12 (Acro Biosystems, AD2-H5228) and ADAM15 (Sino Biological, 10517-H08H). For analysis of clones and subclones, 50 μl of cell supernatants were used. A test bleed sample (1:1000) was used as a positive control. Hybridoma culture medium or a pre-bleed serum sample (1:1000) was used as a negative control. Purified mouse ADPs were assessed at 1 μg/ml vs normal mouse IgG and with a test bleed sample as a positive control. ADP binding was detected with a goat anti-mouse IgG (Fc specific)-peroxidase antibody (1:5000, Sigma-Aldrich, A0168).
Background: In an ELISA, binding on a coated surface is turned into a signal by an enzyme label.

The target of test [3] is T3, Recombinant human ADAM12 (Acro Biosystems, AD2-H5228) (human, UniProt O43184 208-708).
T3 sequence (looked up): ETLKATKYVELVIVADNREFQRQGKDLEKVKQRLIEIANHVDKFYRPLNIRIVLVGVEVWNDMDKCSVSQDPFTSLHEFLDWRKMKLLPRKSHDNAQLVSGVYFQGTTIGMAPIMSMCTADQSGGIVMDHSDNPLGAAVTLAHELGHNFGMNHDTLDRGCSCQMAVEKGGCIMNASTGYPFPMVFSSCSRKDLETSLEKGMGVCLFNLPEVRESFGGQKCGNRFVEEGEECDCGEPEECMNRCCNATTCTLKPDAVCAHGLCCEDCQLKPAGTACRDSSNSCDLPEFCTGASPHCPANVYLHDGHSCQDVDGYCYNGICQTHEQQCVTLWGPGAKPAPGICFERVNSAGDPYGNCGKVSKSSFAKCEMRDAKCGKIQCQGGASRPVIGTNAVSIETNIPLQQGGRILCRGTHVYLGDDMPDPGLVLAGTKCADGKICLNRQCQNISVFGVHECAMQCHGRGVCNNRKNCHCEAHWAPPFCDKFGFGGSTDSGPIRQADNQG
The test is described as follows: ELISA, recombinant ADAM12. How it is done: as §1

B1: ADP13 (antibody, IgG1, V domains shown)
VH: EVQLQQSGPEMVKPGTSVKISCKASGYTFTDYYINWVKQSHGKSLEWIGDISPNIGGATYNPKFKGKAILTVDKSARTAYMELRSLTSEDSAVYCCTRGGSSYPYFYAMDYWGQGTSVTVSS
VL: DIVMSQSPSSLAVSVGEKVTMSCKSSQSLLYSSNQKKYLAWYQQKPGQSPKLLIYWASTRESGVPDRFTGSGSGTDFTLTISSVKAEDLAVYYCQQFYSYPYTFGGGTKLEINR
notes: also called mADP13; mouse ADP13
For the molecule B1, in test [1], the binding result is recorded as “no binding (tested: 2 µg antibody per sample)”.

B2: ADP2 (antibody, V domains shown)
VH: EVKLVESGGGLVQPGGSLSLSCAASGFSFPDYYMSWVRQPPGKALEWLGFIRDSANGYTTEYIASVKGRFTFSRDNSQSILYLQMNALRAEDSATYYCARYSRYYGMDYWGQGTSVTVSS
VL: SIVMTQTPKILLVSAGDRVTITCKASQTVNYDVAWYQQKPGQSPKPVIYFASNRYTGVPDRFTGSGFGTDFTFTISTVQAEDLAVYFCQQDYSAPWTFGGGTKLEIK
notes: also called mADP2; mouse ADP2
For B2, the binding result in test [1] was “no binding (tested: 2 µg antibody per sample)”; in test [2], “no binding (tested: 1 µg/ml)”.

B3: ADP3 (antibody, IgG1, V domains shown)
VH: EVKLEESGGGLVQPGGSMKLSCAASGFTFSDAWMDWVRQSPEKGLEWVAEIRGKVNNLATYYVESVKGRFTISRDDSKSSVYLQMNSLRAEDTGIYYCLGRYDATYAMDYWGQGTSVTVSS
VL: DVVMTQTPLSLPVSLGDQASISCRSSQSLVHSDGNTYLHWYLQKPGQSPKLLIYKLSNRFSGVPDRFSGSGSGTDFTLKISRVEAEDLGVYFCSQSTHVPWTFGGGTKLEIK
Take B3: the binding result in test [3] was “no binding (tested: 1 µg/ml)”.
